# Measured values published in IntAct's records for PubMed 12897162.
# B1: DNA repair protein rad60 (Schizosaccharomyces pombe (strain ATCC 38366 / 972)), Q9USX3 (parent)
# chain: MDNLDEDDLAFFSKPIKKPPLNYAKQLIASSSDSEEESELDTNKQALEHINAQKNITHNENKSAEPLSRQSTILDADEGNQDVSDTTPNACLNEGRHSPKSAISCVTQPVSPVYNTRAAANLRNNSINSEAALSTTSSLLDDDFARRLEEIDRQVQEFEKSSSDMDVQIHTHKREIEEDDDNTSADVPLLKHSKSDHSTLYHSKSEFSTNEPVISVVLQLAVIGQRIPNSNISLPRDWEAPLFFKVKSNQQFRRVRIAYSERKKVDNVVLVFQNQRLWDYGTPKGAGMLKVDTRLVVHAYCHSDFISLKRIKELEVEKLSSVTEDSTAQTCKLITLLLRSSKSEDLRLSIPVDFTVKDLIKRYCTEVKISFHERIRLEFEGEWLDPNDQVQSTELEDEDQVSVVLD
# partner: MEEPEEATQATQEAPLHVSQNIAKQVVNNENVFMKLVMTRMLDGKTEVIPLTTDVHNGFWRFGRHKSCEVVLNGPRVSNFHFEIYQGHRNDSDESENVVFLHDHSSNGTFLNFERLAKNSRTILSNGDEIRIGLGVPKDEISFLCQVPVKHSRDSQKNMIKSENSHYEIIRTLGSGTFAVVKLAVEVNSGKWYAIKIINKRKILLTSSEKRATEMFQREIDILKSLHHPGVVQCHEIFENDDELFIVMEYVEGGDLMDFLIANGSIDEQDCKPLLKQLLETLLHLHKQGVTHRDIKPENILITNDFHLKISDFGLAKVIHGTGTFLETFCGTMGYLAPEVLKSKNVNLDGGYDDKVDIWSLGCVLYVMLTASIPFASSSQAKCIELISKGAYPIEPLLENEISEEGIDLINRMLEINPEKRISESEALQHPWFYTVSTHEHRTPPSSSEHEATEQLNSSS
# B2: Serine/threonine-protein kinase cds1 (Schizosaccharomyces pombe (strain ATCC 38366 / 972)), Q09170 (parent)
# chain: B1 partner
# partner: B1 chain
# Variants of: B1
# Conditions: with rad53_schpo cds1, Q09170
row,effect of a mutation on the interaction,Variant
1,disrupting interaction,MDNLDEDDLAFFSKPIKKPPLNYAKQLIASSSDSEEESELDTNKQALEHINAQKNITHNENKSAEPLSRQSAILDADEGNQDVSDTTPNACLNEGRHSPKSAISCVTQPVSPVYNTRAAANLRNNSINSEAALSTTSSLLDDDFARRLEEIDRQVQEFEKSSSDMDVQIHTHKREIEEDDDNTSADVPLLKHSKSDHSTLYHSKSEFSTNEPVISVVLQLAVIGQRIPNSNSSLPRDWEAPLFFKVKSNRQFRRVRIAYSERKKVDNVVLVFQNQRLWDYGTPKGAGMLKVDTRLVVHAYCHSDFISLKRINELEVEKLSSVTEDSTAQTCKLITLLLRSSKSEDLRLSIPVDFTVKDLIKRYCTEVKISFHERIRLEFEGEWLDPNDQVQSTELEDEDQVSVVLD [T72A;I232S;Q250R;K312N]

# Variants of: B2
# Conditions: with rad60_schpo rad60, Q9USX3
row,effect of a mutation on the interaction,Variant
1,disrupting interaction,MEEPEEATQATQEAPLHVSQNIAKQVVNNENVFMKLVMTRMLDGKTEVIPLTTDVHNGFWRFGRHKSCEVVLNGPRVANFAFEIYQGHRNDSDESENVVFLHDHSSNGTFLNFERLAKNSRTILSNGDEIRIGLGVPKDEISFLCQVPVKHSRDSQKNMIKSENSHYEIIRTLGSGTFAVVKLAVEVNSGKWYAIKIINKRKILLTSSEKRATEMFQREIDILKSLHHPGVVQCHEIFENDDELFIVMEYVEGGDLMDFLIANGSIDEQDCKPLLKQLLETLLHLHKQGVTHRDIKPENILITNDFHLKISDFGLAKVIHGTGTFLETFCGTMGYLAPEVLKSKNVNLDGGYDDKVDIWSLGCVLYVMLTASIPFASSSQAKCIELISKGAYPIEPLLENEISEEGIDLINRMLEINPEKRISESEALQHPWFYTVSTHEHRTPPSSSEHEATEQLNSSS [S78A;H81A]
